In paper PMC3519819 one finds surviving cells on 3AT data, which are given here for 1 molecule.

The assay addresses IscS fused with the bait protein (pBT-IscS, pJTU3618) (E. coli), P0A6B7. The experiment in a line: two-hybrid; BacterioMatch II bacterial two-hybrid; IscS on pBT (bait), Dpt proteins on pTRG (target); reporter strain E. coli XL1-Blue MRF' Kan; colonies counted on Selective Screening Medium with 5 mM 3-AT against nonselective medium, 24 h at 37°C. To be noted: remark: other sources report otherwise.

Chain of IscS fused with the bait protein (pBT-IscS, pJTU3618) (E. coli), P0A6B7 (P0A6B7 whole entry, the tested form may be a part): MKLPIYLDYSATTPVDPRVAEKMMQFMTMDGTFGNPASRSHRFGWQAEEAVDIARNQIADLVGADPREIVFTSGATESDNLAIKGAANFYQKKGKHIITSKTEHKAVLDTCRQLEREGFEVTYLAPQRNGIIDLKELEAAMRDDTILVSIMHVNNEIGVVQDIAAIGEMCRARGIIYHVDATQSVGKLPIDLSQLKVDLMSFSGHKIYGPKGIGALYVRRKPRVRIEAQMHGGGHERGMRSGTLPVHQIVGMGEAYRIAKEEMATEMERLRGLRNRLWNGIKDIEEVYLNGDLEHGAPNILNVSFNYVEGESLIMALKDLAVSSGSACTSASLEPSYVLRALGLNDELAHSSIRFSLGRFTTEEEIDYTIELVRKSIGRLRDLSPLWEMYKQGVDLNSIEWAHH

B1: DptC fused with the target protein (pTRG-DptC, pJTU3610), E2D677 1-544 (natural protein)
chain: MSKLVQAYDLAEYEDFINQEQFAGRPLAEYVAEVQRIYCADKRPWVIGYSGGKDSSAVITLVYLALLGLPPEMRSKDVFIVSSDTLVETPVVVDLIKKTMLQIEAGAKRNGLPITQHAVTPKTNETFWVNLLGKGYPAPTRSFRWCTERMKINPVSDFIKDKVSQFDEVIVVLGSRSSESASRAQVIAKHKIDGSRLARHTTLANAFIYTPIDTWDVEDVWKLLRGAFRYAPEDIDEWESPWGGNNRPLWTLYMDSSAQGECPLVIDESTPSCGNSRFGCWTCTVVTKDKAMESLIKNGEEWMSPLLKYRDLLAFTTDPANKDTYRNYKRRTGKVSYQYAKDGEDRSAERKHVPGPYWLKYRQQWLKDLLEIERDLNAQGHTITLITQPELHAIRQEWLKDPNEPDWHDTLPEIYREVYQQDLNWVVDDQSRFDASDADLLAQITQGFDVVPEMVMKLIELETSMEGLSRRQGIFDKLGTILKQDWGSLEEIQQQQATLQKRNDRDIHQDEVEKLEAELQTLQRRIIDAGESSVLIDEENERAH
Molecule B1 gave a surviving cells on 3AT of 2%.
